According to patent publication US20220323445A1, “REDUCING IMMUNOGENICITY TO PEGLOTICASE” (Horizon Therapeutics Ireland DAC, priority 2020, published 2022):

Tested on: patients with uncontrolled gout
Assay: Health Assessment Questionnaire (HAQ-DI, HAQ pain, HAQ health), open-label study
Format: in vivo, human
Set-up: key to HAQ-Health, Observed, Median / HAQ-Health, Change from Baseline, Median: 0-100 scale; 0 = very well, 100 = very poor health; key to HAQ-DI, Observed, Median / HAQ-DI, Change from Baseline, Median: HAQ-DI scale 0-3; 0 = no difficulty, 3 = unable to do
Conditions: mITT
Protocol: Quality-of-Life Assessment: The HAQ was administered at the Screening and Week −4 or week −6 (prior to the first dose of MTX) Visits during the MTX Run-in Period for the open-label and randomized studies, respectively; prior to pegloticase infusion at the Day 1 and Weeks 14, 24 and 36 Visits or at the Day 1 and weeks 6, 14, 20, 24, 30, 36, and 44 visits during the Pegloticase+IMM Period for the open-label and randomized studies, respectively; at the End of Pegloticase Infusions Visit (if applicable), the Week 52/End of Study/Early Termination Visit and the Post Treatment Periods 3 and 6 Month Follow-up Visits (open-label study). The HAQ-DI is a self-report functional status instrument that can be filled out by a subject in less than 5 minutes and requires 1 minute to score. The index measures disability over the past week by asking a total of 20 questions covering 8 domains of function: dressing and grooming, arising, eating, walking, hygiene, reach, grip, and usual activities. There are at least 2 questions in each domain and the 8 domains represent a comprehensive set of functional activities. The HAQ-DI is calculated by scoring the answer to each question in the HAQ from 0 to 3, with 0 representing the ability to do without any difficulty, and 3 representing inability to do. Any activity that requires assistance from another individual or requires the use of an assistive device raises a 0 or 1 score to a 2. The highest score for each of the 8 domains is summed (range from 0 to 24) and divided by 8 to yield, on a scale with 25 possible values, a Functional Disability Index with a range from 0 to 3. The disability index is based on the number of domains answered and is computed only if the subject completes answers to at least 6 domains. The HAQ pain scale asks subjects to record how much pain they have had in the past week on a scale of 0 to 100, where zero represents “no pain” and 100 represents “severe pain”. The HAQ health scale is a measure of overall health. Subjects are asked to rate how well they are doing on a score of 0 to 100, where zero represents “very well” and 100 represents “very poor” health.

[1] = Day 1 vs Methotrexate Baseline, n=13
[2] = Early Termination Visit vs Methotrexate Baseline, n=3
[3] = Early Termination Visit vs Pegloticase Baseline, n=3
[4] = End of Pegloticase Infusions Visit vs Methotrexate Baseline, n=2
[5] = End of Pegloticase Infusions Visit vs Pegloticase Baseline, n=2
[6] = End of Pegloticase Infusions Visit, n=2
[7] = Week 14 vs Methotrexate Baseline, n=14
[8] = Week 14 vs Pegloticase Baseline, n=14
[9] = Week 24 vs Methotrexate Baseline, n=11
[10] = Week 24 vs Pegloticase Baseline, n=11
[11] = Week 36 vs Methotrexate Baseline, n=9
[12] = Week 36 vs Pegloticase Baseline, n=9
[13] = Week 52/ET vs Methotrexate Baseline, n=3
[14] = Week 52/ET vs Pegloticase Baseline, n=3

B1: pegloticase (protein)
chain: TYKKNDEVEFVRTGYGKDMIKVLHIQRDGKYHSIKEVATTVQLTLSSKKDYLHGDNSDVIPTDTIKNTVNVLAKFKGIKSIETFAVTICEHFLSSFKHVIRAQVYVEEVPWKRFEKNGVKHVHAFIYTPTGTHFCEVEQIRNGPPVIHSGIKDLKVLKTTQSGFEGFIKDQFTTLPEVKDRCFATQVYCKWRYHQGRDVDFEATWDTVRSIVLQKFAGPYDKGEYSPSVQKTLYDIQVLTLGQVPEIEDMEISLPNIHYLNIDMSKMGLINKEEVLLPLDNPYGKITGTVKRKLSSRL
modifications: monomethoxy PEG conjugated; Krystexxa Sequence
notes: covalent conjugate of uricase produced by a genetically modified strain of Escherichia coli and monomethoxypoly (ethylene glycol)
HAQ-DI, Observed, Mean (SD) (Day 1, n=13): 0.8 (0.77) | HAQ-DI, Observed, Median (Day 1, n=13): 0.5 | HAQ-Health, Observed, Mean (SD) (Day 1, n=13): 37.8 (27.06) | HAQ-Health, Observed, Median (Day 1, n=13): 25.0 | HAQ-Pain, Observed, Mean (SD) (Day 1, n=13): 42.5 (22.24) | HAQ-Pain, Observed, Median (Day 1, n=13): 40.0 | HAQ-DI, Change from Baseline, Mean (SD) [1]: 0.1 (0.27) | HAQ-DI, Change from Baseline, Median [1]: 0.0 | HAQ-Health, Change from Baseline, Mean (SD) [1]: −8.8 (38.29) | HAQ-Health, Change from Baseline, Median [1]: 10.0 | HAQ-Pain, Change from Baseline, Mean (SD) [1]: 2.3 (19.93) | HAQ-Pain, Change from Baseline, Median [1]: 0.0 | HAQ-DI, Change from Baseline, Mean (SD) [2]: 0.2 (0.90) | HAQ-DI, Change from Baseline, Median [2]: −0.3 | HAQ-Health, Change from Baseline, Mean (SD) [2]: −0.7 (16.77) | HAQ-Health, Change from Baseline, Median [2]: 8.0 | HAQ-Pain, Change from Baseline, Mean (SD) [2]: 19.0 (36.51) | HAQ-Pain, Change from Baseline, Median [2]: 7.0 | HAQ-DI, Change from Baseline, Mean (SD) [3]: 0.2 (0.56) | HAQ-DI, Change from Baseline, Median [3]: 0.1 | HAQ-Health, Change from Baseline, Mean (SD) [3]: −11.7 (62.52) | HAQ-Health, Change from Baseline, Median [3]: −10.0 | HAQ-Pain, Change from Baseline, Mean (SD) [3]: 0.0 (45.83) | HAQ-Pain, Change from Baseline, Median [3]: −10.0 | HAQ-DI, Observed, Mean (SD) (Early Termination Visit, n=3): 0.7 (0.51) | HAQ-DI, Observed, Median (Early Termination Visit, n=3): 0.6 | HAQ-Health, Observed, Mean (SD) (Early Termination Visit, n=3): 28.3 (40.72) | HAQ-Health, Observed, Median (Early Termination Visit, n=3): 10.0 | HAQ-Pain, Observed, Mean (SD) (Early Termination Visit, n=3): 46.7 (40.41) | HAQ-Pain, Observed, Median (Early Termination Visit, n=3): 40.0 | HAQ-DI, Change from Baseline, Mean (SD) [4]: −0.1 (0.35) | HAQ-DI, Change from Baseline, Median [4]: −0.1 | HAQ-Health, Change from Baseline, Mean (SD) [4]: −80.0 (0.00) | HAQ-Health, Change from Baseline, Median [4]: −80.0 | HAQ-Pain, Change from Baseline, Mean (SD) [4]: 2.5 (74.25) | HAQ-Pain, Change from Baseline, Median [4]: 2.5 | HAQ-DI, Change from Baseline, Mean (SD) [5]: −0.1 (0.35) | HAQ-DI, Change from Baseline, Median [5]: −0.1 | HAQ-Health, Change from Baseline, Mean (SD) [5]: −45.0 (49.50) | HAQ-Health, Change from Baseline, Median [5]: −45.0 | HAQ-Pain, Change from Baseline, Mean (SD) [5]: 2.5 (74.25) | HAQ-Pain, Change from Baseline, Median [5]: 2.5 | HAQ-DI, Observed, Mean (SD) [6]: 0.1 (0.18) | HAQ-DI, Observed, Median [6]: 0.1 | HAQ-Health, Observed, Mean (SD) [6]: 0.0 (0.00) | HAQ-Health, Observed, Median [6]: 0.0 | HAQ-Pain, Observed, Mean (SD) [6]: 40.0 (56.57) | HAQ-Pain, Observed, Median [6]: 40.0 | HAQ-DI, Observed, Mean (SD) (Week 14, n=14): 0.5 (0.41) | HAQ-DI, Observed, Median (Week 14, n=14): 0.5 | HAQ-Health, Observed, Mean (SD) (Week 14, n=14): 36.6 (33.87) | HAQ-Health, Observed, Median (Week 14, n=14): 16.5 | HAQ-Pain, Observed, Mean (SD) (Week 14, n=14): 27.1 (26.25) | HAQ-Pain, Observed, Median (Week 14, n=14): 15.0 | HAQ-DI, Change from Baseline, Mean (SD) [7]: −0.2 (0.77) | HAQ-DI, Change from Baseline, Median [7]: 0.0 | HAQ-Health, Change from Baseline, Mean (SD) [7]: −12.5 (36.79) | HAQ-Health, Change from Baseline, Median [7]: −5.0 | HAQ-Pain, Change from Baseline, Mean (SD) [7]: −13.9 (30.48) | HAQ-Pain, Change from Baseline, Median [7]: −12.5 | HAQ-DI, Change from Baseline, Mean (SD) [8]: −0.3 (0.80) | HAQ-DI, Change from Baseline, Median [8]: 0.0 | HAQ-Health, Change from Baseline, Mean (SD) [8]: −4.3 (43.82) | HAQ-Health, Change from Baseline, Median [8]: −1.0 | HAQ-Pain, Change from Baseline, Mean (SD) [8]: −16.0 (30.65) | HAQ-Pain, Change from Baseline, Median [8]: −12.5 | HAQ-DI, Observed, Mean (SD) (Week 24, n=11): 0.2 (0.33) | HAQ-DI, Observed, Median (Week 24, n=11): 0.1 | HAQ-Health, Observed, Mean (SD) (Week 24, n=11): 21.4 (26.65) | HAQ-Health, Observed, Median (Week 24, n=11): 10.0 | HAQ-Pain, Observed, Mean (SD) (Week 24, n=11): 25.4 (27.50) | HAQ-Pain, Observed, Median (Week 24, n=11): 20.0 | HAQ-DI, Change from Baseline, Mean (SD) [9]: −0.5 (0.74) | HAQ-DI, Change from Baseline, Median [9]: −0.1 | HAQ-Health, Change from Baseline, Mean (SD) [9]: −33.2 (36.01) | HAQ-Health, Change from Baseline, Median [9]: −40.0 | HAQ-Pain, Change from Baseline, Mean (SD) [9]: −19.2 (35.13) | HAQ-Pain, Change from Baseline, Median [9]: −10.0 | HAQ-DI, Change from Baseline, Mean (SD) [10]: −0.6 (0.85) | HAQ-DI, Change from Baseline, Median [10]: −0.1 | HAQ-Health, Change from Baseline, Mean (SD) [10]: −19.7 (43.38) | HAQ-Health, Change from Baseline, Median [10]: −10.0 | HAQ-Pain, Change from Baseline, Mean (SD) [10]: −16.7 (38.53) | HAQ-Pain, Change from Baseline, Median [10]: −10.0 | HAQ-DI, Observed, Mean (SD) (Week 36, n=9): 0.3 (0.49) | HAQ-DI, Observed, Median (Week 36, n=9): 0.1 | HAQ-Health, Observed, Mean (SD) (Week 36, n=9): 27.3 (35.18) | HAQ-Health, Observed, Median (Week 36, n=9): 10.0 | HAQ-Pain, Observed, Mean (SD) (Week 36, n=9): 21.0 (27.60) | HAQ-Pain, Observed, Median (Week 36, n=9): 10.0 | HAQ-DI, Change from Baseline, Mean (SD) [11]: −0.5 (0.80) | HAQ-DI, Change from Baseline, Median [11]: 0.0 | HAQ-Health, Change from Baseline, Mean (SD) [11]: −27.7 (42.59) | HAQ-Health, Change from Baseline, Median [11]: −10.0 | HAQ-Pain, Change from Baseline, Mean (SD) [11]: −22.9 (28.41) | HAQ-Pain, Change from Baseline, Median [11]: −20.0 | HAQ-DI, Change from Baseline, Mean (SD) [12]: −0.5 (0.86) | HAQ-DI, Change from Baseline, Median [12]: −0.1 | HAQ-Health, Change from Baseline, Mean (SD) [12]: −16.2 (50.72) | HAQ-Health, Change from Baseline, Median [12]: −10.0 | HAQ-Pain, Change from Baseline, Mean (SD) [12]: −19.9 (20.25) | HAQ-Pain, Change from Baseline, Median [12]: −20.0 | HAQ-DI, Change from Baseline, Mean (SD) [13]: −0.6 (0.87) | HAQ-DI, Change from Baseline, Median [13]: −0.1 | HAQ-Health, Change from Baseline, Mean (SD) [13]: −16.7 (59.23) | HAQ-Health, Change from Baseline, Median [13]: 15.0 | HAQ-Pain, Change from Baseline, Mean (SD) [13]: −42.7 (18.04) | HAQ-Pain, Change from Baseline, Median [13]: −44.0 | HAQ-DI, Change from Baseline, Mean (SD) [14]: −0.8 (1.08) | HAQ-DI, Change from Baseline, Median [14]: −0.1 | HAQ-Health, Change from Baseline, Mean (SD) [14]: 23.3 (54.85) | HAQ-Health, Change from Baseline, Median [14]: 5.0 | HAQ-Pain, Change from Baseline, Mean (SD) [14]: −41.0 (25.24) | HAQ-Pain, Change from Baseline, Median [14]: −29.0 | HAQ-DI, Observed, Mean (SD) (Week 52/ET, n=3): 0.4 (0.29) | HAQ-DI, Observed, Median (Week 52/ET, n=3): 0.3 | HAQ-Health, Observed, Mean (SD) (Week 52/ET, n=3): 60.0 (48.22) | HAQ-Health, Observed, Median (Week 52/ET, n=3): 80.0 | HAQ-Pain, Observed, Mean (SD) (Week 52/ET, n=3): 4.0 (5.20) | HAQ-Pain, Observed, Median (Week 52/ET, n=3): 1.0
